We go through 1 molecule from paper PMC10731242, “Macromolecular crowding potently stimulates DNA supercoiling activity of Mycobacterium tuberculosis DNA gyrase” (The Journal of Biological Chemistry, 2023).

This assay concerns the target T1, Mycobacterium tuberculosis DNA gyrase subunit A (Mycobacterium tuberculosis, UniProt P9WG47 1-838).
T1 construct: also called Mtb GyrA; Mtb gyrase subunit A
The experiment in a line: SEC. Particulars: both partners purified.

T1 sequence (P9WG47 whole entry): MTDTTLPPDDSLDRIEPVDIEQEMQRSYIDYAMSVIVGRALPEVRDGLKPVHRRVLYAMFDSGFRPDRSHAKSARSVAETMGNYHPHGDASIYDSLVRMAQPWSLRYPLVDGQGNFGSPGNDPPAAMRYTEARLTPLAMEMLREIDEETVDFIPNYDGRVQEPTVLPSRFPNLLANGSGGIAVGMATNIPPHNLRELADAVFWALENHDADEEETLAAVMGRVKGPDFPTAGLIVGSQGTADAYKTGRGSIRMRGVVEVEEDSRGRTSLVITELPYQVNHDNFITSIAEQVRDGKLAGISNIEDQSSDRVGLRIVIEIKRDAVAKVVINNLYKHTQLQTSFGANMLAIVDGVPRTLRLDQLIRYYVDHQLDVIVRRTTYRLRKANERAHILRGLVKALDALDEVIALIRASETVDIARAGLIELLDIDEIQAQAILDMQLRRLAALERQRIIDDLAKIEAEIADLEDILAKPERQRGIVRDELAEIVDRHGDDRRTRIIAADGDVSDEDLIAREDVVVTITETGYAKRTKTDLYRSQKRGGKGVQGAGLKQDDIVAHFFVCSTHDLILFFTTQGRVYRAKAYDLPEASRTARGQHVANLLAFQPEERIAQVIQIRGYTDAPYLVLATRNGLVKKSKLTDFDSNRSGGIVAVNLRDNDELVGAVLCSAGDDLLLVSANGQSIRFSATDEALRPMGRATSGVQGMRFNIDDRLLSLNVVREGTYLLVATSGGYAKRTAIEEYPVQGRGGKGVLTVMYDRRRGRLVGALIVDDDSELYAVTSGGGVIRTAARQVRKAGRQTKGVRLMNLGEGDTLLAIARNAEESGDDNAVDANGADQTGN

B1: Mycobacterium tuberculosis DNA gyrase subunit B (enzyme)
chain: MAAQKKKAQDEYGAASITILEGLEAVRKRPGMYIGSTGERGLHHLIWEVVDNAVDEAMAGYATTVNVVLLEDGGVEVADDGRGIPVATHASGIPTVDVVMTQLHAGGKFDSDAYAISGGLHGVGVSVVNALSTRLEVEIKRDGYEWSQVYEKSEPLGLKQGAPTKKTGSTVRFWADPAVFETTEYDFETVARRLQEMAFLNKGLTINLTDERVTQDEVVDEVVSDVAEAPKSASERAAESTAPHKVKSRTFHYPGGLVDFVKHINRTKNAIHSSIVDFSGKGTGHEVEIAMQWNAGYSESVHTFANTINTHEGGTHEEGFRSALTSVVNKYAKDRKLLKDKDPNLTGDDIREGLAAVISVKVSEPQFEGQTKTKLGNTEVKSFVQKVCNEQLTHWFEANPTDAKVVVNKAVSSAQARIAARKARELVRRKSATDIGGLPGKLADCRSTDPRKSELYVVEGDSAGGSAKSGRDSMFQAILPLRGKIINVEKARIDRVLKNTEVQAIITALGTGIHDEFDIGKLRYHKIVLMADADVDGQHISTLLLTLLFRFMRPLIENGHVFLAQPPLYKLKWQRSDPEFAYSDRERDGLLEAGLKAGKKINKEDGIQRYKGLGEMDAKELWETTMDPSVRVLRQVTLDDAAAADELFSILMGEDVDARRSFITRNAKDVRFLDV
notes: also called Mtb GyrB; gyrB
Take B1: the binding result is “binds”.
